These results are taken from patent US20200148732A1 (UNIVERSITY OF COPENHAGEN, published 2020).

Residue numbers refer to the chain shown, from its start.

One experiment concerns the target T1, GFP-TONSL D559A (Homo sapiens, UniProt Q96HA7 1-1378).
T1 construct: also called TONSL D559A / GFP; not shown: N-terminal GFP tag
T1 sequence: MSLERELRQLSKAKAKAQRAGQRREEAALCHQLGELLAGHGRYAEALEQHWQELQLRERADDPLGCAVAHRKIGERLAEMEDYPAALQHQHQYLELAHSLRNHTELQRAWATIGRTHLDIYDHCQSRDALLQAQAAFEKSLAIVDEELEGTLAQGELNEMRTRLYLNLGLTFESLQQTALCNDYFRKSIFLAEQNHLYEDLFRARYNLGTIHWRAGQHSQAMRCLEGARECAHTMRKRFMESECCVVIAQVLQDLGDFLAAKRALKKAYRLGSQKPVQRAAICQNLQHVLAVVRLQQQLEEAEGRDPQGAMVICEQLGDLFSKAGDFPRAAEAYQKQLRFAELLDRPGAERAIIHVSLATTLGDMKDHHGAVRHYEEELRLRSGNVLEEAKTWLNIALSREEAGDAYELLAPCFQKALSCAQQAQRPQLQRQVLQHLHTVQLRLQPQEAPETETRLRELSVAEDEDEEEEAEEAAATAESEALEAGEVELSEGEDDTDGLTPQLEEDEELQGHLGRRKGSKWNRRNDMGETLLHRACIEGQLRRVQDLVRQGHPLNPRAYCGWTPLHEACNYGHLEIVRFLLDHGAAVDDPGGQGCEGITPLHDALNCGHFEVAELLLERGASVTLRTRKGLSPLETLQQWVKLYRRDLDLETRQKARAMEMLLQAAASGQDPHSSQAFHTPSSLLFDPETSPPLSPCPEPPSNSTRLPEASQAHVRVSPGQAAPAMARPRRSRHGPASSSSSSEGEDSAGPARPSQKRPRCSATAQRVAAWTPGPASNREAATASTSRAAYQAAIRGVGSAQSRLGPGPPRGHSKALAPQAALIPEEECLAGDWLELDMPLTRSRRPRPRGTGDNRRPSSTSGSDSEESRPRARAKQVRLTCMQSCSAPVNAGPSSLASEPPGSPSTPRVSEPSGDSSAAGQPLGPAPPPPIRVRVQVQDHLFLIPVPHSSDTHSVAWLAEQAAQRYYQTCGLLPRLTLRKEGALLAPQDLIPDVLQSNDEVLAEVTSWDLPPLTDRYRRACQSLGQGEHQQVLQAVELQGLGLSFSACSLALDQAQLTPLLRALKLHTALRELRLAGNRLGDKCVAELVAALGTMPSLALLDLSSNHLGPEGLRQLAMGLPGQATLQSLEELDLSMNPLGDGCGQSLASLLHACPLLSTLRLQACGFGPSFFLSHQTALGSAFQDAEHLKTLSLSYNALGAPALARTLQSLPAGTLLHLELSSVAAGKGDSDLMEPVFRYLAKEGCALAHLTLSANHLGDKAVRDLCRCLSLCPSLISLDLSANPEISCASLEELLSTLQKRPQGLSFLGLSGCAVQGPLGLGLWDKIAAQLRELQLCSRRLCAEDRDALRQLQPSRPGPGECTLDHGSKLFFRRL
In words: GFP immunoprecipitation of GFP-TONSL from transfected HeLa S3 cells, western blot (co-IP; association may be indirect). In general terms: In western blotting, separated proteins are transferred to a membrane and probed.

The target in a further experiment is T2, GFP-TONSL E568A (Homo sapiens, UniProt Q96HA7 1-1378).
T2 construct: also called TONSL E568A / GFP; not shown: N-terminal GFP tag
T2 sequence: T1 sequence with A559D, E568A
The experiment is described as above.

B1: MMS22L (endogenous, in cell extracts) (other, UniProt Q6ZRQ5 1-1243, looked up)
chain: MENCSAASTFLTDSLELELGTEWCKPPYFSCAVDNRGGGKHFSGESYLCSGALKRLILNLDPLPTNFEEDTLEIFGIQWVTETALVNSSRELFHLFRQQLYNLETLLQSSCDFGKVSTLHCKADNIRQQCVLFLHYVKVFIFRYLKVQNAESHVPVHPYEALEAQLPSVLIDELHGLLLYIGHLSELPSVNIGAFVNQNQIKLFPPSWHLLHLHLDIHWLVLEILYMLGEKLKQVVYGHQFMNLASDNLTNISLFEEHCETLLCDLISLSLNRYDKVRSSESLMSDQCPCLCIKELWVLLIHLLDHRSKWFVSESFWNWLNKLLKTLLEKSSDRRRSSMPVIQSRDPLGFSWWIITHVASFYKFDRHGVPDEMRKVESNWNFVEELLKKSISVQGVILEEQLRMYLHCCLTLCDFWEPNIAIVTILWEYYSKNLNSSFSISWLPFKGLANTMKSPLSMLEMVKTCCCDKQDQELYKSSSSYTIFLCILAKVVKKAMKSNGPHPWKQVKGRIYSKFHQKRMEELTEVGLQNFFSLFLLLAAVAEVEDVASHVLDLLNFLKPAFVTSQRALIWKGHMAFLLMYAQKNLDIGVLAEKFSCAFREKAKEFLVSKNEEMVQRQTIWTLLSIYIDGVQEVFETSYCLYPSHEKLLNDGFSMLLRACRESELRTVLSFLQAVLARIRSMHQQLCQELQRDNVDLFVQSSLSAKERHLAAVASALWRHFFSFLKSQRMSQVVPFSQLADAAADFTLLAMDMPSTAPSDFQPQPVISIIQLFGWDDIICPQVVARYLSHVLQNSTLCEALSHSGYVSFQALTVRSWIRCVLQMYIKNLSGPDDLLIDKNLEEAVEKEYMKQLVKLTRLLFNLSEVKSIFSKAQVEYLSISEDPKKALVRFFEAVGVTYGNVQTLSDKSAMVTKSLEYLGEVLKYIKPYLGKKVFSAGLQLTYGMMGILVKSWAQIFATSKAQKLLFRIIDCLLLPHAVLQQEKELPAPMLSAIQKSLPLYLQGMCIVCCQSQNPNAYLNQLLGNVIEQYIGRFLPASPYVSDLGQHPVLLALRNTATIPPISSLKKCIVQVIRKSYLEYKGSSPPPRLASILAFILQLFKETNTDIYEVELLLPGILKCLVLVSEPQVKRLATENLQYMVKACQVGSEEEPSSQLTSVFRQFIQDYGMRYYYQVYSILETVATLDQQVVIHLISTLTQSLKDSEQKWGLGRNIAQREAYSKLLSHLGQMGQDEMQRLENDNT
Regarding B1, the binding result in the experiment with GFP-TONSL D559A and with GFP-TONSL E568A was “binds” each time.
